Results published in patent US7115267.

Assays:
mu opiate receptor = experiment: cell-based or functional assay
[1] = target: p141-ubiquitin fusion protein (human) (UniProt P0CG47); experiment: cell-based or functional assay
Sequence of p141-ubiquitin fusion protein (human) (P0CG47 other isoform, or with tags, fused parts or gaps): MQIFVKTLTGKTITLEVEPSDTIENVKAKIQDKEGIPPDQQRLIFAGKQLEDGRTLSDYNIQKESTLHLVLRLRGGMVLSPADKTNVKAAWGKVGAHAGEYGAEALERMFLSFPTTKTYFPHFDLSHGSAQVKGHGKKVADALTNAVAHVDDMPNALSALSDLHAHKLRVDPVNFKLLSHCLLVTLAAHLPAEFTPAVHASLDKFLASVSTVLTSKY

| Substance | % Kill in the CFU-MIX cycling assay, Human Alpha (100 ng/ml) + CTOP 10^-7 M (0 without CTOP; control 42; CTOP alone 36) (mu opiate receptor) [%] | digestion of the ubiquitin fusion protein in vivo (co-expression in bacteria) [1] [%] |
| --- | --- | --- |
| Purified human hemoglobin alpha chain (from UniProt P69905 2-142) | 20 |  |
| UBP1 ubiquinase (from UniProt P25037 1-809) (enzyme) |  | 70 |
